# Assay results published in US20240132578A1.
# Residue numbers refer to the chain shown, from its start.
# B1: PGT-137 (antibody, V domains shown)
# VH: EVHLEESGPGLVRPSETLSLTCTASGGSIRGGEWGDSDYHWGWVRHSPEKGLEWIGSIHWRGTTHYNAPFRGRGRLSIDLSRNQFSLRLTSVTAEDTAVYYCVKHKYHDIVMVVPIAGWFDPWGQGLQVTVSS
# VL: EIMMTQSPAILSVSPGDRATLSCRASQSVKNNLAWYQKRPGQAPRLLIFDTSSRASGIPARFSGGGSGTEFTLTVNSMQSEDFATYYCQQYEEWPRTFGQGTKVEIK
# B2: 1503_H05 (PG16) (TCN-119) (antibody, V domains shown)
# VH: QEKLVESGGGVVQPGGSLRLSCLASGFTFHKYGMHWVRQAPGKGLEWVALISDDGMRKYHSDSMWGRVTISRDNSKNTLYLQFSSLKVEDTAMFFCAREAGGPIWHDDVKYYDFNDGYYNYHYMDVWGKGTIVTVSS
# VL: QSALTQPASVSGSPGQTITISCNGTRSDVGGFDSVSWYQQSPGKAPKVMVFDVSHRPSGISNRFSGSKSGNTASLTISGLHIEDEGDYFCSSLTDRSHRIFGGGTKVTVLG
# B3: 1469_M23 (PG16) (TCN-118) (antibody, V domains shown)
# VH: B2 VH with I132T
# VL: B2 VL with K44R, V107L
# B4: 1489_I13 (PG16) (TCN-120) (antibody, V domains shown)
# VH: B2 VH with K3Q, V5L, D62N, I132T
# VL: B2 VL with R26S
# B5: 1456_A12 (PG16) (TCN-117) (antibody, V domains shown)
# VH: B2 VH with Q1H, K3Q, S7A, K87R, I132K
# VL: B2 VL with R26S, S27R, I60M, V107L
# Legend:
# Assay in all cases: cell-based or functional assay
# [1] = target: HIV-1 Env of isolate MGRM-G-015 (subtype G), on pseudovirus (HIV-1)
# [2] = target: HIV-1 Env of isolate MGRM-G-011 (subtype G), on pseudovirus (HIV-1)
# [3] = target: HIV-1 Env of isolate MGRM-G-009 (subtype G), on pseudovirus (HIV-1)
# [4] = target: HIV-1 Env of isolate MGRM-G-028 (subtype G), on pseudovirus (HIV-1)
# [5] = target: HIV-1 Env of isolate MGRM-G-001 (subtype G), on pseudovirus (HIV-1)
# [6] = target: HIV-1 Env of isolate 93TH305 (subtype B) (HIV-1)
# [7] = target: HIV-1 Env of isolate 6535.3 (subtype B) (HIV-1)
# [8] = target: HIV-1 Env of isolate MGRM-G-024 (subtype G), on pseudovirus (HIV-1)
# [9] = target: HIV-1 Env of isolate MGRM-G-013 (subtype G), on pseudovirus (HIV-1)
# [10] = target: HIV-1 Env of isolate APV_17 (subtype B) (HIV-1)
# [11] = target: HIV-1 Env of isolate APV 6 (subtype B) (HIV-1)
# [12] = target: HIV-1 Env of isolate MGRM-G-017 (subtype G), on pseudovirus (HIV-1)
# [13] = target: HIV-1 Env of isolate MGRM-G-016 (subtype G), on pseudovirus (HIV-1)
# [14] = target: HIV-1 Env of isolate MGRM-G-019 (subtype G), on pseudovirus (HIV-1)
# [15] = target: HIV-1 Env of isolate MGRM-G-004 (subtype G), on pseudovirus (HIV-1)
# [16] = target: HIV-1 Env of isolate MGRM-G-014 (subtype G), on pseudovirus (HIV-1)
# [17] = target: HIV-1 Env of isolate MGRM-G-027 (subtype G), on pseudovirus (HIV-1)
# [18] = target: HIV-1 Env of isolate MGRM-G-006 (subtype G), on pseudovirus (HIV-1)
# [19] = target: aMLV envelope, on pseudovirus (negative control)
# [20] = target: HIV-1 Env of isolate 92BR020 (subtype B) (HIV-1)
# [21] = target: HIV-1 Env of isolate APV 13 (subtype B) (HIV-1)
# [22] = target: HIV-1 Env of isolate MGRM-G-025 (subtype G), on pseudovirus (HIV-1)
# [23] = target: HIV-1 Env of pseudovirus DU156 (HIV-1)
# [24] = target: HIV-1 Env of pseudovirus ZM249 (HIV-1)
# [25] = target: HIV-1 Env of pseudovirus AC10 (HIV-1)
# [26] = target: HIV-1 Env of pseudovirus ZM233 (HIV-1)
# [27] = target: Envelope protein of control pseudovirus MuLV (MuLV)
# [28] = target: HIV-1 92RW020 envelope glycoprotein (Env), on pseudovirus (HIV-1 isolate 92RW020 (clade A))
# [29] = target: HIV-1 Env of pseudovirus REJ04541 (HIV-1)
# [30] = target: HIV-1 Env of pseudovirus ZM214 (HIV-1)
# [31] = target: HIV-1 Env of pseudovirus THRO.18 (HIV-1)
# [32] = target: HIV-1 JR-FL Env E168K, on pseudovirus (HIV-1 isolate JR-FL (clade B))
# [33] = target: HIV-1 Env of pseudovirus CAP45 (HIV-1)
# [34] = target: HIV-1 Env of pseudovirus PVO.4 (HIV-1)
# [35] = target: HIV-1 Env of pseudovirus Du172 (HIV-1)
# [36] = target: HIV-1 Env of pseudovirus DU422 (HIV-1)
# [37] = target: HIV-1 Env of pseudovirus TR0.11 (HIV-1)
# [38] = target: HIV-1 ADA envelope glycoprotein (Env), on pseudovirus (HIV-1 isolate ADA)
# [39] = target: HIV-1 Env of pseudovirus CAAN (HIV-1)
binder,measurement,setting,value
B1,"IC50 (µg/mL), neutralization of pseudovirus",[1],> 50 µg/mL
same,"IC50 (µg/mL), neutralization of pseudovirus",[2],> 50 µg/mL
same,"IC50 (µg/mL), neutralization of pseudovirus",[3],> 50 µg/mL
same,"IC50 (µg/mL), neutralization of pseudovirus",[4],> 50 µg/mL
same,"IC50 (µg/mL), neutralization of pseudovirus",[5],41.7 µg/mL
same,"IC50 (µg/mL), pseudovirus neutralization",[6],> 50 µg/mL
same,"IC50 (µg/mL), pseudovirus neutralization",[7],> 50 µg/mL
same,"IC50 (µg/mL), neutralization of pseudovirus",[8],0.051 µg/mL
same,"IC50 (µg/mL), neutralization of pseudovirus",[9],> 50 µg/mL
same,"IC50 (µg/mL), pseudovirus neutralization",[10],> 50 µg/mL
same,"IC50 (µg/mL), pseudovirus neutralization",[11],> 50 µg/mL
same,"IC50 (µg/mL), neutralization of pseudovirus",[12],34.9 µg/mL
same,"IC50 (µg/mL), neutralization of pseudovirus",[13],> 50 µg/mL
same,"IC50 (µg/mL), neutralization of pseudovirus",[14],0.126 µg/mL
same,"IC50 (µg/mL), neutralization of pseudovirus",[15],> 50 µg/mL
same,"IC50 (µg/mL), neutralization of pseudovirus",[16],> 50 µg/mL
same,"IC50 (µg/mL), neutralization of pseudovirus",[17],0.228 µg/mL
same,"IC50 (µg/mL), neutralization of pseudovirus",[18],> 50 µg/mL
same,"IC50 (µg/mL), neutralization of pseudovirus",[19],> 50 µg/mL
same,"IC50 (µg/mL), pseudovirus neutralization",[20],7.81 µg/mL
same,"IC50 (µg/mL), pseudovirus neutralization",[21],> 50 µg/mL
same,"IC50 (µg/mL), neutralization of pseudovirus",[22],> 50 µg/mL
B2,"IC50, pseudovirus neutralization (TZM-bl assay)",[23],< 0.01 µg/mL
same,"IC50, pseudovirus neutralization (TZM-bl assay)",[24],< 0.01 µg/mL
same,"IC50, pseudovirus neutralization (TZM-bl assay)",[25],< 0.01 µg/mL
same,"IC50, pseudovirus neutralization (TZM-bl assay)",[26],< 0.01 µg/mL
same,"IC50, pseudovirus neutralization (TZM-bl assay), control virus",[27],> 25 µg/mL
same,"IC50 (ug/ml), pseudovirus neutralization, TZM-bl assay",[28],0.02 µg/mL
same,"IC50, pseudovirus neutralization (TZM-bl assay)",[29],0.22 µg/mL
same,"IC50, pseudovirus neutralization (TZM-bl assay)",[30],> 25 µg/mL
same,"IC50, pseudovirus neutralization (TZM-bl assay)",[31],4.12 µg/mL
same,"IC50 (ug/ml), pseudovirus neutralization, TZM-bl assay",[32],0.002 µg/mL
same,"IC50, pseudovirus neutralization (TZM-bl assay)",[33],< 0.01 µg/mL
same,"IC50, pseudovirus neutralization (TZM-bl assay)",[34],11 µg/mL
same,"IC50, pseudovirus neutralization (TZM-bl assay)",[35],< 0.01 µg/mL
same,"IC50, pseudovirus neutralization (TZM-bl assay)",[36],0.71 µg/mL
same,"IC50, pseudovirus neutralization (TZM-bl assay)",[37],4.3 µg/mL
same,"IC50 (ug/ml), pseudovirus neutralization, TZM-bl assay",[38],0.003 µg/mL
same,"IC50, pseudovirus neutralization (TZM-bl assay)",[39],13.5 µg/mL
B3,"IC50, pseudovirus neutralization (TZM-bl assay)",[23],< 0.01 µg/mL
same,"IC50, pseudovirus neutralization (TZM-bl assay)",[24],< 0.01 µg/mL
same,"IC50, pseudovirus neutralization (TZM-bl assay)",[25],< 0.01 µg/mL
same,"IC50, pseudovirus neutralization (TZM-bl assay)",[26],< 0.01 µg/mL
same,"IC50, pseudovirus neutralization (TZM-bl assay), control virus",[27],> 25 µg/mL
same,"IC50 (ug/ml), pseudovirus neutralization, TZM-bl assay",[28],0.05 µg/mL
same,"IC50, pseudovirus neutralization (TZM-bl assay)",[29],0.39 µg/mL
same,"IC50, pseudovirus neutralization (TZM-bl assay)",[30],> 25 µg/mL
same,"IC50, pseudovirus neutralization (TZM-bl assay)",[31],7.01 µg/mL
same,"IC50 (ug/ml), pseudovirus neutralization, TZM-bl assay",[32],0.005 µg/mL
same,"IC50, pseudovirus neutralization (TZM-bl assay)",[33],< 0.01 µg/mL
same,"IC50, pseudovirus neutralization (TZM-bl assay)",[34],21.2 µg/mL
same,"IC50, pseudovirus neutralization (TZM-bl assay)",[35],< 0.01 µg/mL
same,"IC50, pseudovirus neutralization (TZM-bl assay)",[36],0.97 µg/mL
same,"IC50, pseudovirus neutralization (TZM-bl assay)",[37],7.52 µg/mL
same,"IC50 (ug/ml), pseudovirus neutralization, TZM-bl assay",[38],0.005 µg/mL
same,"IC50, pseudovirus neutralization (TZM-bl assay)",[39],17.7 µg/mL
B4,"IC50, pseudovirus neutralization (TZM-bl assay)",[23],< 0.01 µg/mL
same,"IC50, pseudovirus neutralization (TZM-bl assay)",[24],< 0.01 µg/mL
same,"IC50, pseudovirus neutralization (TZM-bl assay)",[25],< 0.01 µg/mL
same,"IC50, pseudovirus neutralization (TZM-bl assay)",[26],< 0.01 µg/mL
same,"IC50, pseudovirus neutralization (TZM-bl assay), control virus",[27],> 25 µg/mL
same,"IC50 (ug/ml), pseudovirus neutralization, TZM-bl assay",[28],0.03 µg/mL
same,"IC50, pseudovirus neutralization (TZM-bl assay)",[29],0.34 µg/mL
same,"IC50, pseudovirus neutralization (TZM-bl assay)",[30],> 25 µg/mL
same,"IC50, pseudovirus neutralization (TZM-bl assay)",[31],7.41 µg/mL
same,"IC50 (ug/ml), pseudovirus neutralization, TZM-bl assay",[32],0.005 µg/mL
same,"IC50, pseudovirus neutralization (TZM-bl assay)",[33],< 0.01 µg/mL
same,"IC50, pseudovirus neutralization (TZM-bl assay)",[34],20.6 µg/mL
same,"IC50, pseudovirus neutralization (TZM-bl assay)",[35],< 0.01 µg/mL
same,"IC50, pseudovirus neutralization (TZM-bl assay)",[36],1.87 µg/mL
same,"IC50, pseudovirus neutralization (TZM-bl assay)",[37],10.9 µg/mL
same,"IC50 (ug/ml), pseudovirus neutralization, TZM-bl assay",[38],0.008 µg/mL
same,"IC50, pseudovirus neutralization (TZM-bl assay)",[39],24.9 µg/mL
B5,"IC50, pseudovirus neutralization (TZM-bl assay)",[23],< 0.01 µg/mL
same,"IC50, pseudovirus neutralization (TZM-bl assay)",[24],< 0.01 µg/mL
same,"IC50, pseudovirus neutralization (TZM-bl assay)",[25],< 0.01 µg/mL
same,"IC50, pseudovirus neutralization (TZM-bl assay)",[26],< 0.01 µg/mL
same,"IC50, pseudovirus neutralization (TZM-bl assay), control virus",[27],> 25 µg/mL
same,"IC50 (ug/ml), pseudovirus neutralization, TZM-bl assay",[28],0.05 µg/mL
same,"IC50, pseudovirus neutralization (TZM-bl assay)",[29],< 0.01 µg/mL
same,"IC50, pseudovirus neutralization (TZM-bl assay)",[30],> 25 µg/mL
same,"IC50, pseudovirus neutralization (TZM-bl assay)",[31],2.08 µg/mL
same,"IC50 (ug/ml), pseudovirus neutralization, TZM-bl assay",[32],0.003 µg/mL
same,"IC50, pseudovirus neutralization (TZM-bl assay)",[33],< 0.01 µg/mL
same,"IC50, pseudovirus neutralization (TZM-bl assay)",[34],10.4 µg/mL
same,"IC50, pseudovirus neutralization (TZM-bl assay)",[35],< 0.01 µg/mL
same,"IC50, pseudovirus neutralization (TZM-bl assay)",[36],0.36 µg/mL
same,"IC50, pseudovirus neutralization (TZM-bl assay)",[37],3.05 µg/mL
same,"IC50 (ug/ml), pseudovirus neutralization, TZM-bl assay",[38],0.005 µg/mL
same,"IC50, pseudovirus neutralization (TZM-bl assay)",[39],10.6 µg/mL
